For orientation: Kd means the equilibrium constant for the complex coming apart. Low readings indicate tighter binding, high ones weaker binding.

Where two headings read alike, the source gives them in different places.

One test addresses T1, human ActRIIB (human, UniProt Q13705 19-137, limits assumed).
T1 construct: antigen in MSD-SET; also called ACVR2B; ActR2B
T1 sequence: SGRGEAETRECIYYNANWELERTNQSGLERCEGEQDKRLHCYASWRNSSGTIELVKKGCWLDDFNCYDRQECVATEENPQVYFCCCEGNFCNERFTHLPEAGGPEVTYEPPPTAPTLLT
As to the kind of experiment: MSD-SET.

Test [1] addresses T2, human ActRIIA (human, UniProt P27037 20-135, limits assumed).
T2 construct: antigen in MSD-SET; also called ACVR2A; ActR2A
Kind of test: MSD-SET.

Test [2] has as its target ActRIIA and ActRIIB (on TGFB/SMAD SBE Reporter HEK293 cells) (human). Kind of test: cell-based or functional assay.
Test [3] concerns the target T2, human ActRIIA. Kind of test: MSD-SET. This is another data set of the same source.
The target of test [4] is T2, human ActRIIA. Kind of test: MSD-SET. The source holds these as a separate data set.

T2 sequence (P27037 20-135 limits assumed): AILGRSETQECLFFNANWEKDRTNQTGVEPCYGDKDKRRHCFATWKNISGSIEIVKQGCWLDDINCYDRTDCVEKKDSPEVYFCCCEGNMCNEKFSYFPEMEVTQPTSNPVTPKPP

B1: Schwardamaga, Mouse IgG2a-PALALA (antibody, V domains shown)
VH: QVQLVQSGAEVKKPGSSVKVSCKASGYTFTSSYINWVRQAPGQGLEWMGTINAVSGSTSYAQKFQGRVTITADTSTSTAYMELSSLRSEDTAVYYCARGGWFDYWGQGTLVTVSS
VL: QSALTQPRSVSGSPGQSVTISCTGTSSDVGSANYVNWYQQHPGKAPKPMIYGVSRRPSGVPDRFSGSKSGNTASLTISGLQAEDEADYYCGTFAGGKYYGVFGGGTKLTVL
notes: mouse IgG2a constant region with PALALA
For B1, the results for the Kd in the test with human ActRIIB and in the test with human ActRIIA [1] were 0.016 nM and 0.039 nM, respectively.

B2: Antibody Springerle (antibody, V domains shown)
VH: QVQLVQSGAEVKKPGASVKVSCKASGYTFTSSYINWVRQAPGQGLEWMGTINPVSGSTSYAQKFQGRVTMTRDTSISTAYMELSRLRSDDTAVYYCARGGWFDYWGQGTLVTVSS
VL: QSALTQPASVSGSPGQSITISCTGTSSDVGSYNYVNWYQQHPGKAPKLMIYGVSKRESGVSNRFSGSKSGNTASLTISGLQAEDEADYYCGTFAGGSYRGVFGGGTKLTVL
notes: full-length IgG
For the molecule B2, in test [2], the IC50, Activin SMAD RGA was determined as 0.094 nM; the IC50 [nM] (assay not given) worked out at 0.0946 nM; the IC50 fold difference to bimagrumab (assay not given) is 5.46 fold; the IC90, Activin SMAD RGA is 1.38 nM. In addition, in test [2], the IC90 [nM] (assay not given) worked out at 1.5 nM and the IC90 fold difference to bimagrumab (assay not given) stood at 5.4 fold. Further, in the test with human ActRIIA [3], the “Fold Difference to bimagrumab” value worked out at 7.3 fold and the equilibrium dissociation constant (Kd) came to 0.027 nM. Also, binding with human ActRIIA [4] was put at a Kd of 0.027 nM.

B3: Soidawürstle, Human IgG1-PALALA (antibody, V domains shown)
VH: QVQLVQSGAEVRKPGSSVKVSCKASGYTFTSSYINWVRQAPGQGLEWMGTINPVSGSTSYAQKFQGRVTITADTSTSTAYMELSSLRSEDTAVYYCARGGWFDYWGQGTLVTVSS
VL: QSALTQPRSVSGSPGQSVTISCTGTSSDVGSYNRVNWYQQHPGKAPKLMIYGVSKRESGVPDRFSGSKSGNTASLTISGLQAEDEADYYCGTFAGGRYYGVFGGGTKLTVL
notes: human IgG1 with PA-LALA (L234A/L235A/P329A), EU numbering
Turning to B3, the values for the equilibrium dissociation constant (Kd) in the test with human ActRIIB and with human ActRIIA [1] were 0.006 nM and 0.025 nM, respectively.

B4: Soidawürstle, Mouse IgG2a-PALALA (antibody, V domains shown)
VH: QVQLVQSGAEVRKPGSSVKVSCKASGYTFTSSYINWVRQAPGQGLEWMGTINPVSGSTSYAQKFQGRVTITADTSTSTAYMELSSLRSEDTAVYYCARGGWFDYWGQGTLVTVSS
VL: QSALTQPRSVSGSPGQSVTISCTGTSSDVGSYNRVNWYQQHPGKAPKLMIYGVSKRESGVPDRFSGSKSGNTASLTISGLQAEDEADYYCGTFAGGRYYGVFGGGTKLTVL
notes: as for B1
On to B4, for which the Kd with human ActRIIB amounted to 0.003 nM; in the test with human ActRIIA [1], 0.027 nM.

B5: Soidawürstle, Human IgG1-PALALA-YTE (antibody, V domains shown)
VH: QVQLVQSGAEVRKPGSSVKVSCKASGYTFTSSYINWVRQAPGQGLEWMGTINPVSGSTSYAQKFQGRVTITADTSTSTAYMELSSLRSEDTAVYYCARGGWFDYWGQGTLVTVSS
VL: QSALTQPRSVSGSPGQSVTISCTGTSSDVGSYNRVNWYQQHPGKAPKLMIYGVSKRESGVPDRFSGSKSGNTASLTISGLQAEDEADYYCGTFAGGRYYGVFGGGTKLTVL
notes: human IgG1 with PA-LALA (L234A/L235A/P329A) and YTE (M252Y/S254T/T256E), EU numbering
Regarding B5, the Kd with human ActRIIB was determined as 0.005 nM; in the test with human ActRIIA [1], 0.034 nM.

The values are drawn from patent US20250243286A1 (SIXPEAKS BIO, published 2025).
